# Laboratory results taken from article doi:10.1101/2025.11.26.690650 (bioRxiv, 2025).
# Like-named read-outs stand apart in the source and are kept apart here.
# B1: siR gf698_22 (dsRNA)
# RNA 1: UAGUUCAUCCAUGCCAUGUGUA
# RNA 2: CACAUGGCAUGGAUGAACUAUA
# modifications: 5'-phosphate
# B2: AtmiR168 (dsRNA)
# RNA 1: UCGCUUGGUGCAGGUCGGGAA
# RNA 2: CCCGCCUUGCAUCAACUGAAU
# modifications: 5'-phosphate
# B3: Turnip crinkle virus P38 protein (TCV P38), wildtype (natural protein, UniProt P06663 1-351, looked up)
# chain: MENDPRVRKFASDGAQWAIKWQKKGWSTLTSRQKQTARAAMGIKLSPVAQPVQKVTRLSAPVALAYREVSTQPRVSTARDGITRSGSELITTLKKNTDTEPKYTTAVLNPSEPGTFNQLIKEAAQYEKYRFTSLRFRYSPMSPSTTGGKVALAFDRDAAKPPPNDLASLYNIEGCVSSVPWTGFILTVPTDSTDRFVADGISDPKLVDFGKLIMATYGQGANDAAQLGEVRVEYTVQLKNRTGSTSDAQIGDFAGVKDGPRLVSWSKTKGTAGWEHDCHFLGTGNFSLTLFYEKAPVSGLENADASDFSVLGEAAAGSVQWAGVKVAERGQGVKMVTTEEQPKGKWQALRI
# B4: siR gf698_24 (dsRNA)
# RNA 1: UAGUUCAUCCAUGCCAUGUGUAAU
# RNA 2: UACACAUGGCAUGGAUGAACUAUA
# modifications: 5'-phosphate
# B5: AtmiR403a (dsRNA)
# RNA 1: UUAGAUUCACGCACAAACUCG
# RNA 2: UGUUUUGUGCUUGAAUCUAAUU
# modifications: 5'-phosphate
# B6: siR gf698_21 (dsRNA)
# RNA 1: UAGUUCAUCCAUGCCAUGUGU
# RNA 2: ACAUGGCAUGGAUGAACUAUA
# modifications: 5'-phosphate
# B7: NbmiR403b (dsRNA)
# RNA 1: UUAGAUUCACGCACAAACUCG
# RNA 2: UGUUUGUGCGUGAUUCUGACA
# modifications: 5'-phosphate
# B8: AtmiR162 (dsRNA)
# RNA 1: UCGAUAAACCUCUGCAUCCAG
# RNA 2: GGAGGCAGCGGUUCAUCGAUC
# modifications: 5'-phosphate
# B9: dsRNA_33 (dsRNA)
# RNA 1: CUAAGAUGCUCGCUGCCAAUGAACGACCCUCCCUAA
# RNA 2: UUAGGGAGGGUCGUUCAUUGGCAGCGAGCAUCU
# modifications: 5'-phosphate
# B10: NbmiR403a (dsRNA)
# RNA 1: UUAGAUUCACGCACAAACUCG
# RNA 2: UGUUUGUGCGUGAAUCUGACA
# modifications: 5'-phosphate
# Key:
# [1] = target: TCV P38_W274A (Turnip crinkle virus) (UniProt P06663); experiment: native MS
# [2] = target: T1, TCV P38 (capsid protein, VSR) wild type (Turnip crinkle virus (pTCV cDNA), UniProt P06663 1-351); experiment: competition
# T1 sequence: B3 chain
# [3] = target: T1, TCV P38 (capsid protein, VSR) wild type; experiment: EMSA
# [4] = target: T1, TCV P38 (capsid protein, VSR) wild type; experiment: competition; remark: listed apart in the source
# [5] = target: T1, TCV P38 (capsid protein, VSR) wild type; experiment: competition; remark: listed apart in the source
# crystal structure = target: the molecule itself; experiment: crystal structure
# AUC = target: the molecule itself; experiment: AUC
# [6] = target: T1, TCV P38 (capsid protein, VSR) wild type; experiment: EMSA; remark: listed apart in the source
# [7] = target: T1, TCV P38 (capsid protein, VSR) wild type; experiment: EMSA; remark: listed apart in the source
Molecule,Ki [2] [nM],Kd [3] [nM],Ki [5] [nM],further results
TCV P38_W274A (from UniProt P06663 1-351) (natural protein),,,,stoichiometry N [1]: 2
B1,0.35 ± 0.1,0.53 ± 0.07,0.57 ± 0.06,Ki [4]: 0.18 ± 0.05 nM
B2,0.7 ± 0.2,0.55 ± 0.05,0.95 ± 0.3,
B3,,,,stoichiometry N (crystal structure): 60; stoichiometry N (AUC): 2
B4,0.33 ± 0.08,0.44 ± 0.09,0.33 ± 0.03,Ki [4]: 0.4 ± 0.1 nM
B5,,0.87 ± 0.13,,
B6,,0.56 ± 0.09,0.7 ± 0.07,
B7,,1.27 ± 0.1,,
"UAGUUCAUCCAUGCCAUGUGUAAU (ssRNA, 5'-phosphate) [ss gf698_24]",,,,binding result [6]: no binding
"UAGUUCAUCCAUGCCAUGUGU (ssRNA, 5'-phosphate) [ss gf698_21]",,,,binding result [6]: no binding
B8,0.33 ± 0.17,0.3 ± 0.03,0.5 ± 0.15,
B9,0.06 ± 0.01,,0.07 ± 0.03,Kd [7]: 0.77 ± 0.05 nM; Ki [4]: 0.14 ± 0.03 nM
B10,,0.36 ± 0.05,,
